Data reported in patent publication US11278600B2, “Human alpha-galactosidase variants” (Codexis, Inc., priority 2014, dated 2022).
Positions count from the first letter of the chain named.

B1: 334 (protein)
chain: LDNGLARTPTMGWLHWERFMCNLDCQEEPDSCISEKLFMEMAERMVSEGWKDAGYEYLCIDDCWMAPQRDSEGRLQADPQRFPHGIRQLANYVHSKGLKLGIYADVGNKTCAGFPGSFGYYDIDAQTFADWGVDLLKFDGCYCDSLENLADGYKHMSLALNRTGRSIVYSCEWPLYMWPFQKPNYTEIRQYCNHWRNFADIDDSWASIKSILDWTSFNQERIVDVAGPGGWNDPDMLVIGNFGLSWDQQVTQMALWAIMAAPLFMSNDLRHISPQAKALLQDKDVIAINQDPLGKQGYQLRQGDNFEVWERPLSGDAWAVAIINRQEIGGPRSYTIAVASLGKGVACNPGCFITQLLPVKRQLGFYNWSSRLKSHINPTGTVLLQLENTMQMSLKDLL
modifications: Synthetic Polypeptide sequence of Variant No. 334 of mature Human GLA
B2: 341 (protein)
chain: B1 chain with K96I, F217R, D316L, G350A, Q362K
modifications: Synthetic Polypeptide sequence of Variant No. 341 of mature Human GLA
B3: 338 (protein)
chain: B1 chain with K96I, F217R, D316L, S369T
modifications: Synthetic Polypeptide sequence of Variant No. 338 of mature Human GLA
B4: 342 (protein)
chain: B1 chain with K96I, F217R, Q302K, A337P, G350A, Q362K, S369T
modifications: Synthetic Polypeptide sequence of Variant No. 342 of mature Human GLA
B5: 339 (protein)
chain: B1 chain with K96I, F217R, D316L, S369T
modifications: Synthetic Polypeptide sequence of Variant No. 339 of mature Human GLA
B6: 335 (protein)
chain: B1 chain with K343G
modifications: Synthetic Polypeptide sequence of Variant No. 335 of mature Human GLA
B7: 343 (protein)
chain: B1 chain with K96I, F217R, Q302K, D316L, G350A, Q362K
modifications: Synthetic Polypeptide sequence of Variant No. 343 of mature Human GLA
B8: 337 (protein)
chain: B1 chain with Q302K, D316L, K343D, G350A, Q362K, S369T
modifications: Synthetic Polypeptide sequence of Variant No. 337 of mature Human GLA
B9: 340 (protein)
chain: B1 chain with K96I, F217R, D316L
modifications: Synthetic Polypeptide sequence of Variant No. 340 of mature Human GLA
B10: 336 (protein)
chain: B1 chain with Q302K, D316L, Q362K
modifications: Synthetic Polypeptide sequence of Variant No. 336 of mature Human GLA

What was measured:
Type in all cases: biochemical
[1] = HTP-analysis of yeast culture supernatants, no challenge (MUGal hydrolysis); details: activity of the variant/activity of Rd3BB (SEQ ID NO: 13), yeast culture supernatant
Outline: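 Activity read as 4-methylumbelliferyl α-D-galactopyranoside hydrolysis: fluorescence (355/448 nm) after sodium carbonate stop, following 30-180 min at 37° C with 2 mM MUGal stock at pH 4.6–4.8. Enzyme source is unchallenged culture supernatant of INVSc1 yeast expressing GLA variants, grown 66-84 h at 30° C.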

[2] = HTP-analysis of supernatants pretreated with base (MUGal hydrolysis); details: challenge at pH 8.2; activity of the variant/activity of Rd3BB (SEQ ID NO: 13); yeast culture supernatant
Outline: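 GLA variants secreted from yeast INVSc1; culture supernatants pre-incubated with McIlvaine buffer pH 7.0–8.2 or 200 mM bicarbonate pH 9.1–9.7 at 37° C. for 1–18 h. Residual activity: MUGal (4 mM stock) hydrolysis at pH 4.3–4.8, 37° C., 30–180 min, carbonate quench; fluorescence Ex 355/Em 448 nm.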

[3] = HTP-analysis of supernatants pretreated with acid (MUGal hydrolysis); details: challenge at pH 4.0; activity of the variant/activity of Rd3BB (SEQ ID NO: 13); yeast culture supernatant
Outline: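 MUGal hydrolysis was tracked by fluorescence (Ex 355 nm, Em 448 nm) after a 30-180 min reaction at 37° C. in pH 4.8 McIlvaine/citrate buffer, stopped with 1 M sodium carbonate. Beforehand, yeast (INVSc1) culture supernatants carrying GLA variants were held 1-3 h at 37° C. in acidic McIlvaine buffer, pH 3.3-4.3.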

[4] = HTP-analysis of supernatants pretreated with bovine serum (MUGal hydrolysis); details: activity of the variant/activity of Rd3BB (SEQ ID NO: 13), yeast culture supernatant
Outline: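 Yeast INVSc1 culture supernatants containing secreted GLA variants were mixed with bovine serum (20:80) and held 1 h at 37° C. Serum-treated samples then reacted with MUGal (4 mM stock) in citrate/McIlvaine buffer (pH 4.3/4.8) for 180 min at 37° C., were quenched with sodium carbonate, and read by fluorescence (Ex 355, Em 448 nm).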

Row | Molecule | Relative Activity of GLA Variants After No Challenge (NC) [1] | Relative Activity of GLA Variants After Challenge at pH 8.2 [2] | Relative Activity of GLA Variants After Challenge at pH 4.0 [3] | Relative Activity of GLA Variants After Challenge with Serum [4]
1 | B1 | + (+ = 0.5 to 1.5 relative activity over Rd3BB (SEQ ID NO: 13)) | +++ (+++ = >2.5 relative activity over Rd3BB (SEQ ID NO: 13)) | ++ (++ = >1.5 to 2.5 relative activity over Rd3BB (SEQ ID NO: 13)) | ++ (++ = >1.5 to 2.5 relative activity over Rd3BB (SEQ ID NO: 13))
2 | B2 | − (− = <0.5 relative activity to Rd3BB (SEQ ID NO: 13)) | + (+ = 0.5 to 1.5 relative activity over Rd3BB (SEQ ID NO: 13)) | + (+ = 0.5 to 1.5 relative activity over Rd3BB (SEQ ID NO: 13)) | + (+ = 0.5 to 1.5 relative activity over Rd3BB (SEQ ID NO: 13))
3 | B3 | ++ (++ = >1.5 to 2.5 relative activity over Rd3BB (SEQ ID NO: 13)) | +++ (+++ = >2.5 relative activity over Rd3BB (SEQ ID NO: 13)) | +++ (+++ = >2.5 relative activity over Rd3BB (SEQ ID NO: 13)) | +++ (+++ = >2.5 relative activity over Rd3BB (SEQ ID NO: 13))
4 | B4 | ++ (++ = >1.5 to 2.5 relative activity over Rd3BB (SEQ ID NO: 13)) | +++ (+++ = >2.5 relative activity over Rd3BB (SEQ ID NO: 13)) | +++ (+++ = >2.5 relative activity over Rd3BB (SEQ ID NO: 13)) | +++ (+++ = >2.5 relative activity over Rd3BB (SEQ ID NO: 13))
5 | B5 | + (+ = 0.5 to 1.5 relative activity over Rd3BB (SEQ ID NO: 13)) | ++ (++ = >1.5 to 2.5 relative activity over Rd3BB (SEQ ID NO: 13)) | + (+ = 0.5 to 1.5 relative activity over Rd3BB (SEQ ID NO: 13)) | + (+ = 0.5 to 1.5 relative activity over Rd3BB (SEQ ID NO: 13))
6 | B6 | ++ (++ = >1.5 to 2.5 relative activity over Rd3BB (SEQ ID NO: 13)) | +++ (+++ = >2.5 relative activity over Rd3BB (SEQ ID NO: 13)) | +++ (+++ = >2.5 relative activity over Rd3BB (SEQ ID NO: 13)) | +++ (+++ = >2.5 relative activity over Rd3BB (SEQ ID NO: 13))
7 | B7 | + (+ = 0.5 to 1.5 relative activity over Rd3BB (SEQ ID NO: 13)) | + (+ = 0.5 to 1.5 relative activity over Rd3BB (SEQ ID NO: 13)) | + (+ = 0.5 to 1.5 relative activity over Rd3BB (SEQ ID NO: 13)) | + (+ = 0.5 to 1.5 relative activity over Rd3BB (SEQ ID NO: 13))
8 | B8 | + (+ = 0.5 to 1.5 relative activity over Rd3BB (SEQ ID NO: 13)) | ++ (++ = >1.5 to 2.5 relative activity over Rd3BB (SEQ ID NO: 13)) | ++ (++ = >1.5 to 2.5 relative activity over Rd3BB (SEQ ID NO: 13)) | ++ (++ = >1.5 to 2.5 relative activity over Rd3BB (SEQ ID NO: 13))
9 | B9 | + (+ = 0.5 to 1.5 relative activity over Rd3BB (SEQ ID NO: 13)) | + (+ = 0.5 to 1.5 relative activity over Rd3BB (SEQ ID NO: 13)) | + (+ = 0.5 to 1.5 relative activity over Rd3BB (SEQ ID NO: 13)) | + (+ = 0.5 to 1.5 relative activity over Rd3BB (SEQ ID NO: 13))
10 | B10 | + (+ = 0.5 to 1.5 relative activity over Rd3BB (SEQ ID NO: 13)) | + (+ = 0.5 to 1.5 relative activity over Rd3BB (SEQ ID NO: 13)) | + (+ = 0.5 to 1.5 relative activity over Rd3BB (SEQ ID NO: 13)) | − (− = <0.5 relative activity to Rd3BB (SEQ ID NO: 13))
